Experimental data taken from article PMC4108063.
Where two headings read alike, the source gives them in different places.

Experiments:
[1] = target: hERG-I583A (human) (UniProt Q12809)
[2] = target: hERG-R582A (human) (UniProt Q12809)
[3] = target: hERG-Y597A (human) (UniProt Q12809)
[4] = target: hERG-N588A (human) (UniProt Q12809)
[5] = target: hERG-T613A (human) (UniProt Q12809)
[6] = target: hERG-K608A (human) (UniProt Q12809)
[7] = target: hERG-N598A (human) (UniProt Q12809)
[8] = target: hERG-S631A (human) (UniProt Q12809)
[9] = target: hERG-I583A (human) (UniProt Q12809); remark: listed apart in the source
[10] = target: hERG-Q592A (human) (UniProt Q12809)
[11] = target: human ether-a-go-go-related gene potassium channel (hERG), wild type (human) (UniProt Q12809)
[12] = target: hERG-P596A (human) (UniProt Q12809)
[13] = target: hERG-L586A (human) (UniProt Q12809)
[14] = target: hERG-K595A (human) (UniProt Q12809)
[15] = target: hERG-R582A (human) (UniProt Q12809); remark: listed apart in the source
[16] = target: hERG-S600A (human) (UniProt Q12809)
[17] = target: hERG-H587A (human) (UniProt Q12809)
[18] = target: hERG-D591A (human) (UniProt Q12809)
[19] = target: hERG-K610A (human) (UniProt Q12809)
[20] = target: human ether-a-go-go-related gene potassium channel (hERG), wild type (human) (UniProt Q12809); remark: listed apart in the source

scorpion toxin BmKKx2 (peptide)
percent of mutant hERG channel currents inhibited by 100 nM BmKKx2, whole-cell patch clamp [1]: 70% | percent of mutant hERG channel currents inhibited by 100 nM BmKKx2, whole-cell patch clamp [2]: 70% | IC50 (half-maximum inhibition concentration) of mutant hERG channel currents, whole-cell patch clamp on transfected HEK293 cells [3]: 118 nM | IC50 (half-maximum inhibition concentration) of mutant hERG channel currents, whole-cell patch clamp on transfected HEK293 cells [4]: 14.5 nM | IC50 (half-maximum inhibition concentration) of mutant hERG channel currents, whole-cell patch clamp on transfected HEK293 cells [5]: 42.6 nM | IC50 (half-maximum inhibition concentration) of mutant hERG channel currents, whole-cell patch clamp on transfected HEK293 cells [6]: 116 nM | IC50 (half-maximum inhibition concentration) of mutant hERG channel currents, whole-cell patch clamp on transfected HEK293 cells [7]: 15.2 nM | IC50 (half-maximum inhibition concentration) of mutant hERG channel currents, whole-cell patch clamp on transfected HEK293 cells [8]: 698 nM | IC50 (half-maximum inhibition concentration) of mutant hERG channel currents, whole-cell patch clamp on transfected HEK293 cells [9]: 87.5 nM | IC50 (half-maximum inhibition concentration) of mutant hERG channel currents, whole-cell patch clamp on transfected HEK293 cells [10]: 89.5 nM | IC50 (half-maximum inhibition concentration) of hERG channel currents, whole-cell patch clamp on transfected HEK293 cells [11]: 6.7 nM | IC50 (half-maximum inhibition concentration) of mutant hERG channel currents, whole-cell patch clamp on transfected HEK293 cells [12]: 60.8 nM | IC50 (half-maximum inhibition concentration) of mutant hERG channel currents, whole-cell patch clamp on transfected HEK293 cells [13]: 24.3 nM | IC50 (half-maximum inhibition concentration) of mutant hERG channel currents, whole-cell patch clamp on transfected HEK293 cells [14]: 65.2 nM | IC50 (half-maximum inhibition concentration) of mutant hERG channel currents, whole-cell patch clamp on transfected HEK293 cells [15]: 76.5 nM | IC50 (half-maximum inhibition concentration) of mutant hERG channel currents, whole-cell patch clamp on transfected HEK293 cells [16]: 12.1 nM | IC50 (half-maximum inhibition concentration) of mutant hERG channel currents, whole-cell patch clamp on transfected HEK293 cells [17]: 59.7 nM | IC50 (half-maximum inhibition concentration) of mutant hERG channel currents, whole-cell patch clamp on transfected HEK293 cells [18]: 19.6 nM | IC50 (half-maximum inhibition concentration) of mutant hERG channel currents, whole-cell patch clamp on transfected HEK293 cells [19]: 6.7 nM | IC50 (half-maximum inhibition concentration) of hERG channel currents, whole-cell patch clamp on transfected HEK293 cells [20]: 26.7 nM
